From paper PMC6359379, “SLC35A5 Protein—A Golgi Complex Member with Putative Nucleotide Sugar Transport Activity” (International Journal of Molecular Sciences, 2019)

B1: SLC35A4, mRFP fusion (natural protein, UniProt Q96G79 1-324, looked up)
chain: MSVEDGGMPGLGRPRQARWTLMLLLSTAMYGAHAPLLALCHVDGRVPFRPSSAVLLTELTKLLLCAFSLLVGWQAWPQGPPPWRQAAPFALSALLYGANNNLVIYLQRYMDPSTYQVLSNLKIGSTAVLYCLCLRHRLSVRQGLALLLLMAAGACYAAGGLQVPGNTLPSPPPAAAASPMPLHITPLGLLLLILYCLISGLSSVYTELLMKRQRLPLALQNLFLYTFGVLLNLGLHAGGGSGPGLLEGFSGWAALVVLSQALNGLLMSAVMKHGSSITRLFVVSCSLVVNAVLSAVLLRLQLTAAFFLATLLIGLAMRLYYGSR
notes: SLC35A4, member of the SLC35A subfamily; expressed from a pTag-RFP-C-SLC35A construct; FRET acceptor; source: HEK293T, transiently transfected, in living cells
B2: UDP-N-acetylglucosamine transporter (SLC35A3), mRFP fusion (natural protein, UniProt Q9Y2D2 1-325, looked up)
chain: MFANLKYVSLGILVFQTTSLVLTMRYSRTLKEEGPRYLSSTAVVVAELLKIMACILLVYKDSKCSLRALNRVLHDEILNKPMETLKLAIPSGIYTLQNNLLYVALSNLDAATYQVTYQLKILTTALFSVSMLSKKLGVYQWLSLVILMTGVAFVQWPSDSQLDSKELSAGSQFVGLMAVLTACFSSGFAGVYFEKILKETKQSVWIRNIQLGFFGSIFGLMGVYIYDGELVSKNGFFQGYNRLTWIVVVLQALGGLVIAAVIKYADNILKGFATSLSIILSTLISYFWLQDFVPTSVFFLGAILVITATFLYGYDPKPAGNPTKA
notes: SLC35A3, UDP-N-acetylglucosamine transporter; expressed from a pTag-RFP-C-SLC35A construct; FRET acceptor; source: HEK293T, transiently transfected, in living cells
B3: CMP-sialic acid transporter (SLC35A1), mRFP fusion (natural protein, UniProt P78382 1-337, looked up)
chain: MAAPRDNVTLLFKLYCLAVMTLMAAVYTIALRYTRTSDKELYFSTTAVCITEVIKLLLSVGILAKETGSLGRFKASLRENVLGSPKELLKLSVPSLVYAVQNNMAFLALSNLDAAVYQVTYQLKIPCTALCTVLMLNRTLSKLQWVSVFMLCAGVTLVQWKPAQATKVVVEQNPLLGFGAIAIAVLCSGFAGVYFEKVLKSSDTSLWVRNIQMYLSGIIVTLAGVYLSDGAEIKEKGFFYGYTYYVWFVIFLASVGGLYTSVVVKYTDNIMKGFSAAAAIVLSTIASVMLFGLQITLTFALGTLLVCVSIYLYGLPRQDTTSIQQGETASKERVIGV
notes: SLC35A1, CMP-sialic acid transporter; expressed from a pTag-RFP-C-SLC35A construct; FRET acceptor; The legend writes 'mRFP/SLC35A proteins'; also called mRFP/SLC35A1; source: HEK293T, transiently transfected, in living cells
B4: UDP-galactose transporter (SLC35A2), ER splice variant, mRFP fusion (natural protein, UniProt P78381-1 1-396, looked up)
chain: MAAVGAGGSTAAPGPGAVSAGALEPGTASAAHRRLKYISLAVLVVQNASLILSIRYARTLPGDRFFATTAVVMAEVLKGLTCLLLLFAQKRGNVKHLVLFLHEAVLVQYVDTLKLAVPSLIYTLQNNLQYVAISNLPAATFQVTYQLKILTTALFSVLMLNRSLSRLQWASLLLLFTGVAIVQAQQAGGGGPRPLDQNPGAGLAAVVASCLSSGFAGVYFEKILKGSSGSVWLRNLQLGLFGTALGLVGLWWAEGTAVATRGFFFGYTPAVWGVVLNQAFGGLLVAVVVKYADNILKGFATSLSIVLSTVASIRLFGFHVDPLFALGAGLVIGAVYLYSLPRGAAKAIASASASASGPCVHQQPPGQPPPPQLSSHRGDLITEPFLPKLLTKVKGS
notes: SLC35A2, UDP-galactose transporter, the second splice variant, localised mainly to the ER (A2-ER); expressed from a pTag-RFP-C-SLC35A construct; FRET acceptor; also called second splice variant of SLC35A2; source: HEK293T, transiently transfected, in living cells
B5: UDP-galactose transporter (SLC35A2), Golgi splice variant, mRFP fusion (natural protein, UniProt P78381-2 1-393, looked up)
chain: MAAVGAGGSTAAPGPGAVSAGALEPGTASAAHRRLKYISLAVLVVQNASLILSIRYARTLPGDRFFATTAVVMAEVLKGLTCLLLLFAQKRGNVKHLVLFLHEAVLVQYVDTLKLAVPSLIYTLQNNLQYVAISNLPAATFQVTYQLKILTTALFSVLMLNRSLSRLQWASLLLLFTGVAIVQAQQAGGGGPRPLDQNPGAGLAAVVASCLSSGFAGVYFEKILKGSSGSVWLRNLQLGLFGTALGLVGLWWAEGTAVATRGFFFGYTPAVWGVVLNQAFGGLLVAVVVKYADNILKGFATSLSIVLSTVASIRLFGFHVDPLFALGAGLVIGAVYLYSLPRGAAKAIASASASASGPCVHQQPPGQPPPPQLSSHRGDLITEPFLPKSVLVK
notes: expressed from a pTag-RFP-C-SLC35A construct; FRET acceptor; also called first splice variant of SLC35A2; source: HEK293T, transiently transfected, in living cells
B6: Solute carrier family 35 member A5 (SLC35A5), eGFP fusion (natural protein, human, UniProt Q9BS91 1-424, looked up)
chain: MEKQCCSHPVICSLSTMYTFLLGAIFIALSSSRILLVKYSANEENKYDYLPTTVNVCSELVKLVFCVLVSFCVIKKDHQSRNLKYASWKEFSDFMKWSIPAFLYFLDNLIVFYVLSYLQPAMAVIFSNFSIITTALLFRIVLKRRLNWIQWASLLTLFLSIVALTAGTKTLQHNLAGRGFHHDAFFSPSNSCLLFRSECPRKDNCTAKEWTFPEAKWNTTARVFSHIRLGMGHVLIIVQCFISSMANIYNEKILKEGNQLTESIFIQNSKLYFFGILFNGLTLGLQRSNRDQIKNCGFFYGHSAFSVALIFVTAFQGLSVAFILKFLDNMFHVLMAQVTTVIITTVSVLVFDFRPSLEFFLEAPSVLLSIFIYNASKPQVPEYAPRQERIRDLSGNLWERSSGDGEELERLTKPKSDESDEDTF
notes: SLC35A5, putative nucleotide sugar transporter; expressed from the plasmid pTag-GFP2-C-A5; FRET donor in every pair; In the pair A5 + A5 the second copy carried mRFP (pTag-RFP-C-SLC35A construct) in place of eGFP; also called pTag-GFP2-C-A5; source: HEK293T, transiently transfected, in living cells

biological target: B6; assay: FRET or BRET; FLIM/FRET in living HEK293T cells transiently co-transfected, analysed 48 h after transfection in FluoroBrite DMEM; SLC35A5-eGFP as donor, mRFP-tagged SLC35A proteins as acceptors; eGFP lifetime of the donor alone 2.70 ns; details: partners not purified

eGFP fluorescence lifetime of the donor with the acceptor (donor alone 2.70 ns) [ns]	Binder
2.39	B1
2.35	B2
2.29	B3
2.31	B4
2.24	B5

Biological target: the molecule itself
Assay: as above
Details: not given

Binder	eGFP fluorescence lifetime of the donor with the acceptor (donor alone 2.70 ns) [ns]
B6	2.51
